Assay [1] addresses T1, Galectin-3 (UniProt P17931 1-250, limits assumed).
T1 construct: Target of the anti-Gal3 antibody TB006; also called Gal3; GAL3
Description: BLI; after 25 C for 3 months.

For assay [2], the target named is T1, Galectin-3. Description: BLI; after 5 freeze/thaws, 75% vol. of container. For orientation: Biolayer interferometry detects binding as a change in optical thickness at a sensor tip.
Assay [3] addresses T1, Galectin-3. Briefly: BLI; after 3 freeze/thaws, 50% vol. of container.
Assay [4] has as its target T1, Galectin-3. Briefly: BLI; after 5 freeze/thaws, 25% vol. of container.
In assay [5] the target is T1, Galectin-3. Description: BLI; after 4 C for 12 months.
Assay [6] addresses T1, Galectin-3. Description: ELISA blocking assay; TB006 diluted to 0.31 mg/mL in 0.9% NaCl, 25 C, 2 h; blocked partner not named. (In general: ELISA stands for enzyme-linked immunosorbent assay.)
Assay [7] deals with T1, Galectin-3. Description: BLI; after 4 C for 6 months.
The target in assay [8] is T1, Galectin-3. Briefly: BLI; after -80 C for 18 months.
For assay [9], the target named is T1, Galectin-3. Briefly: ELISA blocking assay; TB006 diluted to 0.31 mg/mL in 0.9% NaCl, 25 C, 0 h; blocked partner not named.
The target of assay [10] is T1, Galectin-3. Briefly: ELISA (Biological Activity); long-term stability 5 C, 1 month.
For assay [11], the target named is T1, Galectin-3. Briefly: BLI; after 25 C for 1 month.
For assay [12], the target named is T1, Galectin-3. Briefly: BLI (Binding Activity); accelerated stability 25 C/60% RH, 3 months.
Assay [13] addresses T1, Galectin-3. Briefly: BLI; after 3 freeze/thaws, 75% vol. of container.
Assay [14] addresses T1, Galectin-3. Description: ELISA (Biological Activity); long-term stability 5 C, 0 months.
The target of assay [15] is T2, Galectin-3 (Gal3) (UniProt P17931 1-250, limits assumed).
T2 construct: Target of TB006
T2 sequence (P17931 whole entry): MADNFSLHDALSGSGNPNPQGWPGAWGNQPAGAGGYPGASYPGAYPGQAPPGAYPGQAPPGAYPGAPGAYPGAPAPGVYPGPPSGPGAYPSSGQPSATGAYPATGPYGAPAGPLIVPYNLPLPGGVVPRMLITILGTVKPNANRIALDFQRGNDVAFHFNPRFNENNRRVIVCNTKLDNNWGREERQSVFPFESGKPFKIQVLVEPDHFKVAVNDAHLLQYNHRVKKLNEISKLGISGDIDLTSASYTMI
Description: BLI; 50 mg/mL DS after agitation for 1 day.

For assay [16], the target named is T2, Galectin-3 (Gal3). Description: BLI; 50 mg/mL DS after agitation for 3 days.
Assay [17] addresses T2, Galectin-3 (Gal3). Description: BLI; 50 mg/mL DS after 25 C for 6 months.
The target of assay [18] is T2, Galectin-3 (Gal3). Description: BLI; 20 mg/mL DS after 4 C for 12 months. The essentials: (§1)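 Galectin-3 binding is reported as the dissociation constant (Kd), measured by biolayer interferometry. Samples were collected at time zero or after agitation, repeated freeze-thaw cycles, or storage at set temperatures, including 40° C and cryogenic storage.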
Assay [19] addresses T2, Galectin-3 (Gal3). Briefly: BLI; 20 mg/mL DS after 40 C for 21 days. The procedure, abridged:
as §1

For assay [20], the target named is T2, Galectin-3 (Gal3). Description: BLI; 20 mg/mL DS after 25 C for 1 month. The essentials:
as §1

The target of assay [21] is T2, Galectin-3 (Gal3). Description: BLI; 20 mg/mL DS after 3 freeze/thaws. The procedure, abridged: as §1
Assay [22] deals with T2, Galectin-3 (Gal3). Briefly: BLI; 20 mg/mL DS after 40 C for 28 days.
Assay [23] concerns the target T2, Galectin-3 (Gal3). Description: BLI; 20 mg/mL DS after 4 C for 6 months.
The target of assay [24] is T2, Galectin-3 (Gal3). Briefly: BLI; 50 mg/mL DS after 40 C for 14 days.
Assay [25] addresses T2, Galectin-3 (Gal3). Description: BLI; 50 mg/mL DS after 40 C for 28 days.
The target in assay [26] is T2, Galectin-3 (Gal3). Briefly: BLI; 50 mg/mL DS after 4 C for 6 months.
The target of assay [27] is T2, Galectin-3 (Gal3). Briefly: BLI; 50 mg/mL DS after 25 C for 14 days.
Assay [28] addresses T2, Galectin-3 (Gal3). Description: BLI; 50 mg/mL DS, time 0 control.
The target in assay [29] is T2, Galectin-3 (Gal3). Briefly: BLI; 50 mg/mL DS after 40 C for 3 months.
Assay [30] deals with T2, Galectin-3 (Gal3). Briefly: BLI; 50 mg/mL DS after 40 C for 21 days.
Assay [31] has as its target T2, Galectin-3 (Gal3). Description: BLI; 20 mg/mL DS after 25 C for 6 months. The procedure, abridged: as §1
Assay [32] has as its target T2, Galectin-3 (Gal3). Description: BLI; 50 mg/mL DS after 5 freeze/thaws.

Several values for one entry are separate records, joined by “and”; a condition that tells them apart may be missing. Equal entries are not always repeated.

T1 sequence (P17931 whole entry): as above

B1: TB006 (antibody, human IgG4 S228P, kappa, V domains shown)
VH: QVQLVQSGAEVKKPGASVKVSCKASGYSFTNYYMHWVRQAPGQRLEWMGWIYPGSGNTNYNEKFQGRVTITADTSASTAYMELSSLRSEDTAVYYCSTAPGGFDVWGQGTTVTVSS
VL: DIVMTQTPLSLSVTPGQPASISCKSSKSLLHSDGITYLYWYLQKPGQSPQLLIYRMSNLASGVPDRFSGSGSGTDFTLKISRVEAEDVGVYYCAQMLEFPLTFGQGTKLEIKR
notes: Tested as formulated drug substance or drug product in 20 mM L-histidine, 5 mM methionine, 100 mM NaCl, 0.02% polysorbate 80, pH 5.8, or diluted in 0.9% saline; also called 4A11.H3L1; IMT006a
By Kd is commonly meant a measure of binding affinity in units of concentration. Low values mean a tighter complex, high ones a looser complex. The IC50 is the midpoint of a concentration-inhibition curve. Low values mean inhibition by little substance, high ones a need for much substance. On to B1, for which the dissociation constant Kd in the assay with Galectin-3 [1] amounted to 3.3 nM; in the assay with Galectin-3 [2] it was 2.9 nM; with Galectin-3 [3], 2.3 nM; in the assay with Galectin-3 [4], 2.9 nM; with Galectin-3 [5], 3.9 nM; with Galectin-3 [7], 2.3 nM. For the same molecule, the Kd in the assay with Galectin-3 [8] is 2 nM; with Galectin-3 [11], 3.1 nM; with Galectin-3 [12], 3.1 nM; in the assay with Galectin-3 [13] it was 2.6 nM. Further, the half-maximal inhibitory concentration (IC50) with Galectin-3 [6] was 1.67 µg/mL and 1.71 µg/mL; in the assay with Galectin-3 [9], 1.05 µg/mL; with Galectin-3 [10], 1.8 µg/mL; with Galectin-3 [14] it was 2.5 µg/mL.

B2: TB006 (antibody, human IgG4 S228P, kappa, V domains shown)
VH: QVQLVQSGAEVKKPGASVKVSCKASGYSFTNYYMHWVRQAPGQRLEWMGWIYPGSGNTNYNEKFQGRVTITADTSASTAYMELSSLRSEDTAVYYCSTAPGGFDVWGQGTTVTVSS
VL: DIVMTQTPLSLSVTPGQPASISCKSSKSLLHSDGITYLYWYLQKPGQSPQLLIYRMSNLASGVPDRFSGSGSGTDFTLKISRVEAEDVGVYYCAQMLEFPLTFGQGTKLEIKR
notes: Full antibody tested as drug substance (DS) in 20 mM L-histidine, 5 mM methionine, 100 mM NaCl, 0.02% polysorbate-80, pH 5.8; also called 4A11.H3L1; IMT006a
As for B2, the Kd is 3.8 nM with Galectin-3 (Gal3) [15]; 3.7 nM with Galectin-3 (Gal3) [16]; 2.4 nM with Galectin-3 (Gal3) [17]; 2.7 nM in the assay with Galectin-3 (Gal3) [18]; 2.6 nM with Galectin-3 (Gal3) [19]; 3.9 nM with Galectin-3 (Gal3) [20]. The Kd in the assay with Galectin-3 (Gal3) [21] was determined as 3.3 nM; with Galectin-3 (Gal3) [22], 3.8 nM; with Galectin-3 (Gal3) [23] it was 3.3 nM; with Galectin-3 (Gal3) [24], 2.7 nM; with Galectin-3 (Gal3) [25], 2.3 nM; with Galectin-3 (Gal3) [26] it was 2.1 nM. Further, the Kd was found to be 3.1 nM with Galectin-3 (Gal3) [27]; 2.6 nM with Galectin-3 (Gal3) [28]; 3.1 nM with Galectin-3 (Gal3) [29]; 3 nM in the assay with Galectin-3 (Gal3) [30]; 3.4 nM in the assay with Galectin-3 (Gal3) [31]; 2.6 nM with Galectin-3 (Gal3) [32].

For the origin of these results see patent publication US20240158512A1 (TRUEBINDING, published 2024).
